Measurements reported in doi:10.1101/2021.07.09.451618.

Target: F-actin, rabbit skeletal muscle (rabbit) (UniProt P68135)

Substance	kcat: extrapolated maximum catalytic rate of the actin-activated ATPase [s⁻¹]
M15-2IQ : ELC : RLC complex (1:1:1), jordan (p.D1647G) MYO15 motor domain (from UniProt P60661 1-151)	0.87
M15-2IQ : ELC : RLC complex (1:1:1), wild-type MYO15 motor domain (from UniProt P60661 1-151)	5.8
